{"source": "paper PMC7430637", "about": "“Alternative splicing and allosteric regulation modulate the chromatin binding of UHRF1” (Nucleic Acids Research, 2020)", "binders": {"B1": {"name": "FAM-H3(1-15)K9me3 peptide (N-terminally fluorescein-labelled) (peptide)", "peptide": "ARTKQTARKSTGGKA", "modifications": "fluorescein (FAM) on the N-terminus; K9 trimethylated", "notes": "histone H3 aa 1-15; also called FAM-H3K9me3; source: synthetic peptide (Synpeptide Co., Ltd)"}}, "experiment_in_all_cases": "fluorescence polarisation; FAM-labelled H3(1-15) peptide, recombinant protein titrated; RT; as described (ref. 28)", "settings_in_all_cases": "both partners purified", "key": {"[1]": {"target": "T1, mUHRF1 V1 R-S* (R298A/N299A/T300A/G301A/K302A/S303A), full-length (mouse, UniProt Q8VDF2-1 1-782, R298A | N299A | T300A | G301A | K302A | S303A)", "T1 construct": "UHRF1, mouse, splicing variant V1, NCBI NP_001104550.1, with six alanine substitutions in Linker 2; source: E. coli BL21(DE3) RIL, purified (HisPur Cobalt-Resin)", "T1 sequence (looked up)": "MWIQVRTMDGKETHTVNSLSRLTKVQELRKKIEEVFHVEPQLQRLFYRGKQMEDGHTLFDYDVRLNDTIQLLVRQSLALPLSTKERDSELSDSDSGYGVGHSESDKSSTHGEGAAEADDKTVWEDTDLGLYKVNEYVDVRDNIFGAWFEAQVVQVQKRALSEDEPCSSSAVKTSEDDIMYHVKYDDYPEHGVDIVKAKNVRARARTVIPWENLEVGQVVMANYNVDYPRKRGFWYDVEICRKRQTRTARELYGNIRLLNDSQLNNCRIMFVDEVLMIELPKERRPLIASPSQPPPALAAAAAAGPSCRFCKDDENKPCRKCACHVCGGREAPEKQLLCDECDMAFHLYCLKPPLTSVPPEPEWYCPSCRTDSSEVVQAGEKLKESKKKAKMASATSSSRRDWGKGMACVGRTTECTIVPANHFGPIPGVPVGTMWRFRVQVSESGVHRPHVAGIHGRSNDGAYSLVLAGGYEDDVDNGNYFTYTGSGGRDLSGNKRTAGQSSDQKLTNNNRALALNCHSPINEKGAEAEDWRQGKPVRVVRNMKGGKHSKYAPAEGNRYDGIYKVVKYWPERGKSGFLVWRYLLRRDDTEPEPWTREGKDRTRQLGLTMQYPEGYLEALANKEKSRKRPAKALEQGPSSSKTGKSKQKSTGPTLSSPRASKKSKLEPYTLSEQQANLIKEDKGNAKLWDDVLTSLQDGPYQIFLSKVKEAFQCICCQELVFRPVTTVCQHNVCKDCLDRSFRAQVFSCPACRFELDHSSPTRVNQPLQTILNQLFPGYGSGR"}, "[2]": {"target": "T2, mUHRF1 V1 mLinker 2 V1* (P293A/P294A/P295A/L297A/R298A/N299A/T300A/G301A/K302A/S303A), full-length (mouse, UniProt Q8VDF2-1 1-782, P293A | P294A | P295A | L297A | R298A | N299A | T300A | G301A | K302A | S303A)", "T2 construct": "UHRF1, mouse, splicing variant V1, NCBI NP_001104550.1, with ten alanine substitutions in Linker 2; source: E. coli BL21(DE3) RIL, purified (HisPur Cobalt-Resin)", "T2 sequence (looked up)": "T1 sequence (looked up) with P293A, P294A, P295A, L297A"}, "[3]": {"target": "T3, mTTD-PHD V1 P-patch* (P293A/P294A/P295A) (mouse, UniProt Q8VDF2-1 122-380, P293A | P294A | P295A)", "T3 construct": "UHRF1, mouse, splicing variant V1 (NCBI NP_001104550.1), TTD-Linker 2-PHD, residues 122-380 as told for wild-type mTTD-PHD V1; source: E. coli BL21(DE3) RIL, purified (HisPur Cobalt-Resin)", "T3 sequence (looked up)": "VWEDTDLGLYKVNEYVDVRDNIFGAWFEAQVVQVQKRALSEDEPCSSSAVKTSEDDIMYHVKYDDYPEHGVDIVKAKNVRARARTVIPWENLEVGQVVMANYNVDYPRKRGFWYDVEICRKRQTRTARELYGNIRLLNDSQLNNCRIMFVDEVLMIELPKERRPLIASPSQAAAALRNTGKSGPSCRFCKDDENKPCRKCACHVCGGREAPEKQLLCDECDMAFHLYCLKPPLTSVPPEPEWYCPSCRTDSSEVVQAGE"}, "[4]": {"target": "T4, mUHRF1 V1 P-patch/R-S* (P293A/P294A/P295A/R298A/N299A/T300A/G301A/K302A/S303A), full-length (mouse, UniProt Q8VDF2-1 1-782, P293A | P294A | P295A | R298A | N299A | T300A | G301A | K302A | S303A)", "T4 construct": "UHRF1, mouse, splicing variant V1, NCBI NP_001104550.1, with nine alanine substitutions in Linker 2; source: E. coli BL21(DE3) RIL, purified (HisPur Cobalt-Resin)", "T4 sequence (looked up)": "T1 sequence (looked up) with P293A, P294A, P295A"}, "[5]": {"target": "T5, mTTD-PHD V1 R298* (R298A) (mouse, UniProt Q8VDF2-1 122-380, R298A)", "T5 construct": "UHRF1, mouse, splicing variant V1 (NCBI NP_001104550.1), TTD-Linker 2-PHD, residues 122-380 as told for wild-type mTTD-PHD V1; source: E. coli BL21(DE3) RIL, purified (HisPur Cobalt-Resin)", "T5 sequence (looked up)": "T3 sequence (looked up) with A172P, A173P, A174P, R177A"}}, "note": "Substitutions are numbered along the chain they refer to.", "data": [{"binder": "B1", "values": [{"measurement": "Kd", "setting": "[1]", "result": "11.1 ± 0.3", "unit": "µM"}, {"measurement": "Kd", "setting": "[2]", "result": "12.6 ± 0.5", "unit": "µM"}, {"measurement": "Kd", "setting": "[3]", "result": "10.2 ± 0.3", "unit": "µM"}, {"measurement": "Kd", "setting": "[4]", "result": "13.9 ± 0.8", "unit": "µM"}, {"measurement": "Kd", "setting": "[5]", "result": "5.9 ± 0.5", "unit": "µM"}]}]}
